Measured values from patent publication US20220387487A1, “COMPOSITIONS AND METHODS FOR TREATMENT OF CANCER” (Aleta Biotherapeutics Inc., priority 2019, published 2022).

B1: W262Q: CD19 variant (protein)
chain: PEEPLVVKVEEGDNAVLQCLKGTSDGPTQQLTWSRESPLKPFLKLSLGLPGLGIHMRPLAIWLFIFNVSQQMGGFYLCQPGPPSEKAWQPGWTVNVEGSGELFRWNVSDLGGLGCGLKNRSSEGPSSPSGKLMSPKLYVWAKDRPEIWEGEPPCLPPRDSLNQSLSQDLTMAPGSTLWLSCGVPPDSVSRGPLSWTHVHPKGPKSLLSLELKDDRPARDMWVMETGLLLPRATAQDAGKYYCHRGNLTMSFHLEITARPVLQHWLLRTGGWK
B2: K212S: CD19 variant (protein)
chain: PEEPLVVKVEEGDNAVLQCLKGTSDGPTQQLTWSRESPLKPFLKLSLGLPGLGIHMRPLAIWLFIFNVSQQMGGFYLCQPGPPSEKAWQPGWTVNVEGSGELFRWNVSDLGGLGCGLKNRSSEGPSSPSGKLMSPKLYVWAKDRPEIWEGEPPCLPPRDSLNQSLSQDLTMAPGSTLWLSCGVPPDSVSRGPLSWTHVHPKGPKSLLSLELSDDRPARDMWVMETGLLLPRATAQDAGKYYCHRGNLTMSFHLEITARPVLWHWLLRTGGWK
B3: G269L: CD19 variant (protein)
chain: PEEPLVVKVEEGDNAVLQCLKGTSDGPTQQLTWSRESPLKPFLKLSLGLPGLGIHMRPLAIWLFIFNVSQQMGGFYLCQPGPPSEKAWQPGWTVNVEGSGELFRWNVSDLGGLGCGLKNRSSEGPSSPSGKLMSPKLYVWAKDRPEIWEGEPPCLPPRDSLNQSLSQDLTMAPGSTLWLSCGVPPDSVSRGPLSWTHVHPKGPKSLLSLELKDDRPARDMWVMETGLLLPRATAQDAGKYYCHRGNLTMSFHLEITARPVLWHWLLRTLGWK
B4: L59G: CD19 variant (protein)
chain: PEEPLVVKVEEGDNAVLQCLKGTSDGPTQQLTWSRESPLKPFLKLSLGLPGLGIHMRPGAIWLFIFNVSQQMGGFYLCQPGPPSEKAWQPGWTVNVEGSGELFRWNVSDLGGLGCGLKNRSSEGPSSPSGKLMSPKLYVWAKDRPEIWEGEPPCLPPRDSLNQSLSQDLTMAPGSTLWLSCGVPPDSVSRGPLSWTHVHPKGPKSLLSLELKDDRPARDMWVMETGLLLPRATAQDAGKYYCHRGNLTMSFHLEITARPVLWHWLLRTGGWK
B5: F64G: CD19 variant (protein)
chain: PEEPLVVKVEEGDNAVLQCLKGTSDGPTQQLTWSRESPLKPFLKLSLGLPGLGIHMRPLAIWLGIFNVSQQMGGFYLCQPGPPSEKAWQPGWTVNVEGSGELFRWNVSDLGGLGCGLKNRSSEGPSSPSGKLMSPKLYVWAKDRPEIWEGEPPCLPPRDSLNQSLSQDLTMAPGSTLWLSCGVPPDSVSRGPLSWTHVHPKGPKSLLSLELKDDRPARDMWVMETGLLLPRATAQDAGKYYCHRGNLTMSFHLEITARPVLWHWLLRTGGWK
B6: F66R: CD19 variant (protein)
chain: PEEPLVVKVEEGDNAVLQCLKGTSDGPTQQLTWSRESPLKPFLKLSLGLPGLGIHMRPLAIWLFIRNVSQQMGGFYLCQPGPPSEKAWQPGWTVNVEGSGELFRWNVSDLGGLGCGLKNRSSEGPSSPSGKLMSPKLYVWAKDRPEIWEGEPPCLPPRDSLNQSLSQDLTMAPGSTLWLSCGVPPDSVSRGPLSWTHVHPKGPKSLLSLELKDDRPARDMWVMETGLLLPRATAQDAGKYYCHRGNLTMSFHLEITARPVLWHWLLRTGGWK
B7: L59S: CD19 variant (protein)
chain: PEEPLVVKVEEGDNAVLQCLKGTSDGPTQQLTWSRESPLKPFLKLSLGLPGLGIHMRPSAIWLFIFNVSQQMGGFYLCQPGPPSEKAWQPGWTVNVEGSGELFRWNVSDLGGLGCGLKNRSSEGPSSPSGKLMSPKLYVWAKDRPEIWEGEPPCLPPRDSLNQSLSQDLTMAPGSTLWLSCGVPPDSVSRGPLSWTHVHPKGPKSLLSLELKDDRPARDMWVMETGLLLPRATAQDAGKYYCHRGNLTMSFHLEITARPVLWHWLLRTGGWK
B8: Y240W: CD19 variant (protein)
chain: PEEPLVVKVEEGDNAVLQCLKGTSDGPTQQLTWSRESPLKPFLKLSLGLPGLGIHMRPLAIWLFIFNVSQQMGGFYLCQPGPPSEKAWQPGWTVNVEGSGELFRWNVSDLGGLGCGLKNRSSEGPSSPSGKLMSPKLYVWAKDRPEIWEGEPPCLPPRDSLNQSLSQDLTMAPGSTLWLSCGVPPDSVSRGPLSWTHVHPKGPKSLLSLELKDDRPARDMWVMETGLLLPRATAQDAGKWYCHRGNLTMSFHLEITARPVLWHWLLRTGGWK
B9: W264A: CD19 variant (protein)
chain: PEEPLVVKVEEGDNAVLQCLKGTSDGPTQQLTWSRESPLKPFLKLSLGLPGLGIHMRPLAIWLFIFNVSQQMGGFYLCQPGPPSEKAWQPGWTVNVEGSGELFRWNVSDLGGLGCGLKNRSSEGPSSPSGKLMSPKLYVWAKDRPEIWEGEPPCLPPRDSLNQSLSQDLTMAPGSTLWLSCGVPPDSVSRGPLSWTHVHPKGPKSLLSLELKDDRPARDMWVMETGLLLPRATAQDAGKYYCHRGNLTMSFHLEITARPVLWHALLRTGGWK
B10: A232V: CD19 variant (protein)
chain: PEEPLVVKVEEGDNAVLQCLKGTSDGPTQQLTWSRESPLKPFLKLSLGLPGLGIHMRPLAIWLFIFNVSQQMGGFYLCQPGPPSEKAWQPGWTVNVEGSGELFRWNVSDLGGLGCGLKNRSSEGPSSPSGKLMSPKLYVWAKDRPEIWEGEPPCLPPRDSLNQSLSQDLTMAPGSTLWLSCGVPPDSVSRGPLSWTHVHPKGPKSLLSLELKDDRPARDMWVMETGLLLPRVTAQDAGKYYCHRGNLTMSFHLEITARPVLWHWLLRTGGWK
B11: R215W: CD19 variant (protein)
chain: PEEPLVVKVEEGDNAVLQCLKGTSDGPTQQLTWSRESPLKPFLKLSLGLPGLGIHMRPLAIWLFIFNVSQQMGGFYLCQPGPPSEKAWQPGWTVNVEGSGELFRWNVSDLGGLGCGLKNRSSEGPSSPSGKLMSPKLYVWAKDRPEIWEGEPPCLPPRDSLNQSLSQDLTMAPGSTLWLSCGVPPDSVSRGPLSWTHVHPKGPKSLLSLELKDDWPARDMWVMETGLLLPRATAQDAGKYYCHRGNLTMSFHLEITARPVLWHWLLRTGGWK
B12: G269I: CD19 variant (protein)
chain: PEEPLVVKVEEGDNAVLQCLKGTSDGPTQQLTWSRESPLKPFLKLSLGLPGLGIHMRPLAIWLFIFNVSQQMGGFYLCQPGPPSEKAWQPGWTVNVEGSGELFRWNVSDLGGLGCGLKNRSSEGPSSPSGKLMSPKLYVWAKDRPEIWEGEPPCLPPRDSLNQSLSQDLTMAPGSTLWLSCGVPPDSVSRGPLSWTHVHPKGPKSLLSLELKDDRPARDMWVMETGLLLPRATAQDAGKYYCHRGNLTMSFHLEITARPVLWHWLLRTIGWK
B13: G226S: CD19 variant (protein)
chain: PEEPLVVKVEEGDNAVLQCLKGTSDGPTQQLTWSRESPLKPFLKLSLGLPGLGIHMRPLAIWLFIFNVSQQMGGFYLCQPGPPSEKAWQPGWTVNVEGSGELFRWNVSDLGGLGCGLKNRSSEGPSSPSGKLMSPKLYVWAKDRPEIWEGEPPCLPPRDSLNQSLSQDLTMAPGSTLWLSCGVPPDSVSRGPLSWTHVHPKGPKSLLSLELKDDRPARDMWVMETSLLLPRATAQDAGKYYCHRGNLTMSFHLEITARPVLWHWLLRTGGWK
B14: W262G: CD19 variant (protein)
chain: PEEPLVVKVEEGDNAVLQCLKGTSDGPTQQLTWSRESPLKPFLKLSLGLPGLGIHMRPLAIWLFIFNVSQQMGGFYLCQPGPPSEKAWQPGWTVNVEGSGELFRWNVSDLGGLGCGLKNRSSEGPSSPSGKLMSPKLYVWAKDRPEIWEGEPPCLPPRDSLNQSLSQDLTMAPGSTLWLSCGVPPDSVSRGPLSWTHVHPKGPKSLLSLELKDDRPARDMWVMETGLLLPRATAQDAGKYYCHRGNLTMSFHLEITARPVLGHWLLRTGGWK
B15: W262H: CD19 variant (protein)
chain: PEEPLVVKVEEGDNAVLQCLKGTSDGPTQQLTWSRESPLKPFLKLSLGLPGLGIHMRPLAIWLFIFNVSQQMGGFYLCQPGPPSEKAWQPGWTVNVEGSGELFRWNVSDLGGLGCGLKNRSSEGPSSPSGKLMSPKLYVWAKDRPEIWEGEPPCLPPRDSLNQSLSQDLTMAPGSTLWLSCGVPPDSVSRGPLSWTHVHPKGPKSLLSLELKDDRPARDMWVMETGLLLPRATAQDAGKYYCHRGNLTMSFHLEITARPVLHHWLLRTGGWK
B16: V16F: CD19 variant (protein)
chain: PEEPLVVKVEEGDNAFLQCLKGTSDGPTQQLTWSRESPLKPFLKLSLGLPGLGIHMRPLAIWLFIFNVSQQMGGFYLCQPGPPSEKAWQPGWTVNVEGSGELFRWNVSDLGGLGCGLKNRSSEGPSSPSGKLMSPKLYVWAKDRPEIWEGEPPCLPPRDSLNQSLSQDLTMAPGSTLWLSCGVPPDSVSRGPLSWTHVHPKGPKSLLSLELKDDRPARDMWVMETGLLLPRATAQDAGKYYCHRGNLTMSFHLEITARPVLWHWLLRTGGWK
B17: I255V: CD19 variant (protein)
chain: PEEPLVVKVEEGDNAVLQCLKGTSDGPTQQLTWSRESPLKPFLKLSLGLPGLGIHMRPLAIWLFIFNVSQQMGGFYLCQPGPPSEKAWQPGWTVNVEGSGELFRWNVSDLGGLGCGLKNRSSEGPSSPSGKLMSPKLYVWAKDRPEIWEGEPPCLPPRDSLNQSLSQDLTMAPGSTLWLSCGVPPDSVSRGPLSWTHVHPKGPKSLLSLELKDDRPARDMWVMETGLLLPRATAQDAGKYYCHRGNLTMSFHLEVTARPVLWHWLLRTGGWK
B18: L59E: CD19 variant (protein)
chain: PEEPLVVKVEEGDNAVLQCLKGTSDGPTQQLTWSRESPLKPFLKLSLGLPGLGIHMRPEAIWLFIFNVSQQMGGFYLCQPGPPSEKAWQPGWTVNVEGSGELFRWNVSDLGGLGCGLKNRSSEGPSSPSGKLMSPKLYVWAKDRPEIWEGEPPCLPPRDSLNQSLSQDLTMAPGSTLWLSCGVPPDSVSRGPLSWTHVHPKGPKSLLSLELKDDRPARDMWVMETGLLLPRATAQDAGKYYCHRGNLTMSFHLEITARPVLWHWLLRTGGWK

These molecules were tested on FMC63 (assay: CD19 variant binding to anti-CD19 antibody FMC63 (score)). Conditions: Table 1A, CD19 single mutants (positions of SEQ ID NO:2).
Chain of FMC63 (as listed by the source): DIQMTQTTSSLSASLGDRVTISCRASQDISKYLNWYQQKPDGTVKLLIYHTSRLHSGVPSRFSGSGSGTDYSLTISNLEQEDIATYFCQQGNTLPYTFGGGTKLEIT
Chain of FMC63 (as listed by the source): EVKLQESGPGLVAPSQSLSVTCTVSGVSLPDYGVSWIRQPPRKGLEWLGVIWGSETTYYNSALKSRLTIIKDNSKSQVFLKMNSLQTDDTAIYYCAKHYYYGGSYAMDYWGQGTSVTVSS

Row | Molecule | FMC63 Binding Score
1 | B1 | 6.8 ± .6
2 | B2 | 6.8 ± .6
3 | B3 | 6.1 ± .4
4 | B4 | 6.5 ± .3
5 | B5 | 6. ± .2
6 | B6 | 6. ± .3
7 | B7 | 6.4 ± .4
8 | B8 | 6.3 ± .3
9 | B9 | 6.3 ± .5
10 | B10 | 6.3 ± .2
11 | B11 | 7.1 ± 1.1
12 | B12 | 6.7 ± .8
13 | B13 | 6.1 ± .4
14 | B14 | 6.4 ± .2
15 | B15 | 6.7 ± 1.
16 | B16 | 7. ± 1.
17 | B17 | 6.4 ± .4
18 | B18 | 6.3 ± .5
